Assay [1] concerns the target T1, gp120451 (gp120 of HIV-1 isolate 451) (HIV-1 isolate 451).
T1 construct: also called soluble monomeric gp120451
Description: quantitative ELISA (FIG. 7).

Another assay addresses T2, CD4 protein (UniProt P01730 26-394).
T2 construct: also called soluble CD4
Put plainly: ELISA: m1 phage captured by anti-M13 antibody, incubated with CD4, probed with anti-CD4 mAb. On the technique in general: An ELISA detects its analyte on a solid surface through an enzyme-linked reagent.

“And” between values parts separate entries of the source, which are not always exact repeats. Equal values may be shown once. Where no end group is shown, it is not given here.

B1: m1 peptide (phage-displayed) (peptide)
peptide: CDRRDLPQWAKREC
modifications: not fully specified (C-terminus); cysteine pairing not given here; also: fused to N terminus of phage pVIII (mosaic fth1 phage)
notes: Tested as a fusion to protein 8 on filamentous phage (fth1 vector, mosaic phage); 12mer flanked by constant cysteines; not shown: fd phage protein 8 (pVIII) display carrier at the peptide's C end
In the case of B1, the Kd in assay [1] was 69 nM and 69.2 nM. For the same molecule, the binding result in the assay with CD4 protein is listed as “no binding”.

As usually defined, the Kd is the equilibrium constant for the complex coming apart.

The record behind these values is US20100247558A1 (RAMOT AT TEL AVIV UNIVERSITY, published 2010).
